Values of other authors in publication PMC6047922.

Biological target: ttRNH* Icore (Thermus thermophilus) (UniProt Q72IE1)
Assay: analytical ultracentrifugation

- Kd: 150 µM
Substance: ttRNH* Icore (from UniProt Q72IE1)
